Where a chain is given by its changes, count along the chain named.
What was measured:
[1] = molecular target: T1, dog iRhom2 full length wild type, C-terminally tagged with 3 consecutive copies of the T7 epitope (dog, UniProt Q00M95 1-827); assay: FACS, MEF-DKO-Dog-iR2-FL-WT-T7 cells
T1 construct: whole, on cells; also called Dog-iR2-FL-WT-T7
T1 sequence: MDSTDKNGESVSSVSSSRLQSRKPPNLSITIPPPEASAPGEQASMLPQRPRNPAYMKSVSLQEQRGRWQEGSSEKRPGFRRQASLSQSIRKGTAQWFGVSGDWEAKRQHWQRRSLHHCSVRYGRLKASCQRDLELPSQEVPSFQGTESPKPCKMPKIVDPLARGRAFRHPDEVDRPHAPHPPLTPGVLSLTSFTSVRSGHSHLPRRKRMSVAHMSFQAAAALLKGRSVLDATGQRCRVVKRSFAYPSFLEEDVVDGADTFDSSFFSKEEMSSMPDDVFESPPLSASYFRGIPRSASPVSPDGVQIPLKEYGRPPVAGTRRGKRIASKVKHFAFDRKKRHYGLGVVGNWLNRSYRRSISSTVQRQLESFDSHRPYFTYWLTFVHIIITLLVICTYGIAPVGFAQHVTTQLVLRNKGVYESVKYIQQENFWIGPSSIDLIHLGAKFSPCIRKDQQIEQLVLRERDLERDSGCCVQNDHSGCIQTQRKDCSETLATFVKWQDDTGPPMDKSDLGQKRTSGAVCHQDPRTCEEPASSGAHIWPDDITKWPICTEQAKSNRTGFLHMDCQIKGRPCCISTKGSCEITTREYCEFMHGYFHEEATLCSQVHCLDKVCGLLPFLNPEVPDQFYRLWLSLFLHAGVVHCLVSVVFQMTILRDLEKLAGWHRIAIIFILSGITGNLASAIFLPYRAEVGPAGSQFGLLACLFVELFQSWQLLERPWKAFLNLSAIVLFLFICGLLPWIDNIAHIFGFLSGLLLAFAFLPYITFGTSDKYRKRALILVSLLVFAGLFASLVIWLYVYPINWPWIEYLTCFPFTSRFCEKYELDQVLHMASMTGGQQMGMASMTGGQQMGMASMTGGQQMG
Procedure: In brief, immortalized MEF-DKO-EV control cells, MEF-DKO-rhesus-iR2-FL-WT-T7 cells, MEF-DKO-cyno-iR2-FL-WT-T7 cells, MEF-DKO-dog-iR2-FL-WT-T7 cells and MEF-DKO-rabbit-iR2-FL-WT-T7 cells, as well as their respective iRhom1 counterparts, were harvested with 10 mM EDTA in PBS, washed and resuspended in FACS buffer (PBS, 3% FBS, 0.05% sodium azide), and seeded in Nunc U-bottom 96-well plates (Thermo Fisher Scientific, USA) at approximately 3×10⁵ cells per well. To pellet cells and remove supernatants, the plates were centrifuged at 1,500 rpm and 4° C. for 3 minutes. For primary staining, cells were resuspended in 100 μl per well of either FACS buffer alone (controls), mouse monoclonal anti-T7 IgG (Merck Millipore, USA) at 3 μg/ml FACS buffer or the antibodies of the present disclosure also at 3 μg/ml FACS buffer and incubated on ice for 1 hour. Afterwards, plates were centrifuged at 1,500 rpm and 4° C. for 3 minutes and washed twice with 200 μl per well of FACS buffer. For secondary staining, cells were spun down and resuspended in 100 μl per well of PE-conjugated goat anti-mouse IgG F(ab′)2 detection fragment (Dianova, Germany) diluted 1:100 in FACS buffer. Protected from light, the cell suspensions were incubated on ice for 1 hour. Plates were then centrifuged at 1,500 rpm and 4° C. for 3 minutes and washed three times with 200 μl per well of FACS buffer. Finally, cells were resuspended in 150 μl per well of FACS buffer and analyzed using a BD Accuri™ C6 Plus flow cytometer (Becton Dickinson, Germany).

[2] = molecular target: T2, human iRhom2 (inactive rhomboid protein 2, isoform 1), endogenously expressed on human cells (human, UniProt Q6PJF5 1-856); assay: cell-based or functional assay
T2 sequence: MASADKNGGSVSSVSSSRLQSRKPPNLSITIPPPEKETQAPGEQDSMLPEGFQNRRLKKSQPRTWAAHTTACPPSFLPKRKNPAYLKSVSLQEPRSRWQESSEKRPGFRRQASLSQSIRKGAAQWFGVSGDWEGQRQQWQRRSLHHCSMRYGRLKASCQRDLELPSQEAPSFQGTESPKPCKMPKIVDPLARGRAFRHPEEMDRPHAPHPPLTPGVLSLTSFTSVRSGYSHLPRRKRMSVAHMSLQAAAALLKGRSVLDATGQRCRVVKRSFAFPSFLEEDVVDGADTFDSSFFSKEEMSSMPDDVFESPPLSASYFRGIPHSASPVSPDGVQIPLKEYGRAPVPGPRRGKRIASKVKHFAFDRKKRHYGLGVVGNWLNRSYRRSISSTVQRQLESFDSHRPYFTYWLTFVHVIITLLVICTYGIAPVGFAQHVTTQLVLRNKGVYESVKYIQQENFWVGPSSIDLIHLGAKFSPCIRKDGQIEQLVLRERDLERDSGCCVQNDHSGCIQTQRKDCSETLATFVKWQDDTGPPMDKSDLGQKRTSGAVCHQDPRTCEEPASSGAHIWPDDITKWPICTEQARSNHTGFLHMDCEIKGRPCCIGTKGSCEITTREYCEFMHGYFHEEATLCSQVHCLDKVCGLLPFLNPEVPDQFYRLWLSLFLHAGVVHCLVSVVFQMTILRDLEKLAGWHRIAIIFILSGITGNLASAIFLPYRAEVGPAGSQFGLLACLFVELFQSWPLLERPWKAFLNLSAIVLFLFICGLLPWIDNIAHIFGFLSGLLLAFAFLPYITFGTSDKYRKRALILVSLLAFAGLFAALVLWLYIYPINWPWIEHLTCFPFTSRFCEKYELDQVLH

B1: antibody 22 (antibody, V domains shown)
VH: QVTLKESGPGILQPSQTLSLTCSFSGFSLSTFGMGVGWIRQPSGKGLEWLAHIWWDDEKYYNSALKSRLTISKATSKNQVFLKIANVDTADTATYYCARISNYGSNYWYFNVWGTGTTVTVSS
VL: QVVLTQSPALMSASPGEKVTMTCSAGSSVSYMYWYQQKPGSSPRVLIYDTSNLASGVPARFTGSGSGTSYSLTISRMEAEDAATYYCQQWNSYPLTFGAGTKLELK
notes: Mouse IgG, kappa light chain; also called clone #22; m22
- binding result [1]: binds
- inhibition of LPS-induced release of TNFα from PBMCs of healthy donors, 1 µg/ml [2]: 72.8 % inhibition
- inhibition of LPS-induced release of TNFα from THP-1 cells, 10 µg/ml, antibody purified from hybridoma [2]: 78.8 % inhibition
- inhibition of LPS-induced release of TNFα from THP-1 cells, recombinant antibody [2]: 78.4 % inhibition
- inhibition of LPS-induced release of TNFα from human macrophages of healthy donors [2]: 78.8 % inhibition
- inhibition of PMA-induced release of HB-EGF from PBMCs of healthy donors, 1 µg/ml [2]: 56.5 % inhibition
- inhibition of PMA-induced release of HB-EGF from THP-1 cells, 3 µg/ml [2]: 77.7 % inhibition
- inhibition of PMA-induced release of HB-EGF from U-937 cells [2]: 101 % inhibition
- inhibition of PMA-induced release of IL-6R from PBMCs of healthy donors, 1 µg/ml [2]: 79.3 % inhibition
- inhibition of PMA-induced release of IL-6R from THP-1 cells, 1 µg/ml [2]: 67.4 % inhibition
- inhibition of PMA-induced release of IL-6R from U-937 cells, 1 µg/ml [2]: 74.5 % inhibition
- inhibition of PMA-induced release of IL-6R from U-937 cells, 3 µg/ml [2]: 79 % inhibition
- inhibition of PMA-induced release of TGFα from PC3 cells, 1 µg/ml [2]: 12.7 % inhibition
- inhibition of PMA-induced release of TNFα from U-937 cells, 1 µg/ml [2]: 86.1 % inhibition
- inhibition of PMA-induced release of TNFα from U-937 cells, 3 µg/ml [2]: 93.1 % inhibition

B2: antibody 42 (antibody, V domains shown)
VH: B1 VH with F24L, M34R, S63P, A74D, K83R, S101Q, N111D
VL: LIVLTQSPAIMSASPGEKVTMTCGATSRISYMFWYQQKPGSSPRVLIYDTSNLASGVPVRFSGSGSGTSYSLTISRVEAEDVATYYCQQWNSYPLTFGAGTKLELK
notes: Mouse IgG, kappa light chain; also called clone #42; m42
- binding result [1]: binds
- inhibition of LPS-induced release of TNFα from PBMCs of healthy donors, 1 µg/ml [2]: 77 % inhibition
- inhibition of LPS-induced release of TNFα from THP-1 cells, 10 µg/ml, antibody purified from hybridoma [2]: 76.7 % inhibition
- inhibition of LPS-induced release of TNFα from THP-1 cells, recombinant antibody [2]: 75.9 % inhibition
- inhibition of LPS-induced release of TNFα from human macrophages of healthy donors [2]: 93.2 % inhibition
- inhibition of PMA-induced release of HB-EGF from PBMCs of healthy donors, 1 µg/ml [2]: 77.6 % inhibition
- inhibition of PMA-induced release of HB-EGF from THP-1 cells, 3 µg/ml [2]: 76.6 % inhibition
- inhibition of PMA-induced release of HB-EGF from U-937 cells [2]: 104 % inhibition
- inhibition of PMA-induced release of IL-6R from PBMCs of healthy donors, 1 µg/ml [2]: 85 % inhibition
- inhibition of PMA-induced release of IL-6R from THP-1 cells, 1 µg/ml [2]: 85.9 % inhibition
- inhibition of PMA-induced release of IL-6R from U-937 cells, 1 µg/ml [2]: 80.8 % inhibition
- inhibition of PMA-induced release of IL-6R from U-937 cells, 3 µg/ml [2]: 84.4 % inhibition
- inhibition of PMA-induced release of TGFα from PC3 cells, 1 µg/ml [2]: 14.3 % inhibition
- inhibition of PMA-induced release of TNFα from U-937 cells, 1 µg/ml [2]: 94.5 % inhibition
- inhibition of PMA-induced release of TNFα from U-937 cells, 3 µg/ml [2]: 94.1 % inhibition

B3: antibody 34 (antibody, V domains shown)
VH: QVTLKESGPGILQPSQTLSLTCSFSGFSLSTFSLGVGWIRQSSGKGLEWLAHIWWDDEKYYNPALKSRLTISKDTSKNQVFLKIANVDAADTATYYCARAYYSKSYYALDYWGQGTSVTVSS
VL: DIQMTQSPSSLSASLGERVSLTCRASQEISGYLSWLQQKPDGTIKRLIYAASTLDSGVPKRFSGSRSGSDYSLAISSLESEDFADYYCLQYANFPFTFGSGTKLEIK
notes: Mouse IgG, kappa light chain; also called clone #34; m34
- binding result [1]: binds
- inhibition of LPS-induced release of TNFα from THP-1 cells, 10 µg/ml, antibody purified from hybridoma [2]: 27.3 % inhibition
- inhibition of LPS-induced release of TNFα from THP-1 cells, recombinant antibody [2]: 73.8 % inhibition
- inhibition of PMA-induced release of HB-EGF from THP-1 cells, 3 µg/ml [2]: 64.2 % inhibition
- inhibition of PMA-induced release of HB-EGF from U-937 cells [2]: 98.2 % inhibition
- inhibition of PMA-induced release of IL-6R from THP-1 cells, 1 µg/ml [2]: 71.1 % inhibition
- inhibition of PMA-induced release of IL-6R from U-937 cells, 1 µg/ml [2]: 69.3 % inhibition
- inhibition of PMA-induced release of IL-6R from U-937 cells, 3 µg/ml [2]: 74.6 % inhibition
- inhibition of PMA-induced release of TNFα from U-937 cells, 1 µg/ml [2]: 68.6 % inhibition
- inhibition of PMA-induced release of TNFα from U-937 cells, 3 µg/ml [2]: 79.9 % inhibition

B4: antibody 46 (antibody, V domains shown)
VH: QVTLKESGPGILQPSQTLSLTCSFSGFSLSTFGMGVGWIRQPSGKGLEWLAHIWWDDDNYYNQALKSRLTISKDNTKNQVFLNIANVDTADTATYYCARIRSYDYDVRYAMDYWGQGTSVTVSS
VL: DIKMTQSPSSMYASLRERVTITCKASQDINSYLSWFQQKPGKSPKTLIYRANRLVDGVPSRFSGSGSGQDYSLTISSLEYEDLGIYYCQQYYEFPLTFGAGTRLELK
notes: Mouse IgG, kappa light chain; also called clone #46
- binding result [1]: binds
- inhibition of LPS-induced release of TNFα from THP-1 cells, recombinant antibody [2]: 36.1 % inhibition

Reference: patent publication US20240174744A1 (SCIRHOM, published 2024)
